How the values were obtained:
cryo-EM structure = target: the molecule itself; experiment: cryo-EM structure
SEC = target: the molecule itself; experiment: SEC

| Protein | stoichiometry N (cryo-EM structure) | binding result (SEC) |
| --- | --- | --- |
| ^coreAFG3L2^WB/PI (human AFG3L2 catalytic core, residues 272-797, E408Q/E575Q) (domain or fragment) not shown | 6 |  |
| ^coreAFG3L2^WB/PI/Δ781−797 (domain or fragment) not shown |  | binds |
